Six molecules from patent publication US20250154287A1 (Pfizer, published 2025) can be followed below.

In experiment [1] the target is T1, biotinylated cyno MIGIS-α peptide (cynomolgus monkey).
T1 construct: domain: MIGIS-α
Put plainly: SPR, OAA format. (Surface plasmon resonance follows binding to a sensor surface in real time, without labels.)

The target in experiment [2] is T2, biotinylated human MIGIS-α peptide (human, biotinylated).
T2 peptide: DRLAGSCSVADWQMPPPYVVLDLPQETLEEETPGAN
The experiment can be described thus: SPR, OAA format.

The target in experiment [3] is T1, biotinylated cyno MIGIS-α peptide. Put plainly: SPR (Biacore T200, 37 C), biotinylated peptide captured, OAA as analyte, 1:1 fit.
The target of experiment [4] is T2, biotinylated human MIGIS-α peptide. Described as above.
The target in experiment [5] is T3, human membrane IgA overexpressed on Ramos cells (human).
T3 construct: its MIGIS-α segment is the short form; also called IgA^+ Ramos; human IgA^+ RAMOS cells
Put plainly: flow cytometry on IgA Ramos cells, OAA format; reference. A general note: Flow cytometry measures light scatter and fluorescence of single cells or particles in a stream.

The target of experiment [6] is T3, human membrane IgA overexpressed on …. The experiment can be described thus: flow cytometry, cell binding on IgA+ Ramos cells; fit table under the plot.
Experiment [7] addresses T4, parental (IgA^-) Ramos cell line, which expresses only cell surface IgM (UniProt P01871 1-474).
T4 construct: whole, on cells; Negative control cells without membrane IgA; also called mIgA negative Ramos cells; parental Ramos
Put plainly: flow cytometry on parental Ramos cells.

The target of experiment [8] is T3, human membrane IgA overexpressed on …. Put plainly: flow cytometry, cell binding on IgA+ Ramos cells; fit table under the plot, unit from the y axis (gMFI minus secondary only).
Experiment [9] has the same target. The experiment can be described thus: flow cytometry on IgA+ Ramos cells.
The target is the same in experiment [10]. The experiment can be described thus: flow cytometry, cell binding on IgA+ Ramos cells; fit table under the plot (the text prints 2.9 nM).
The target in another experiment is T5, Short MIGIS-α form (human).
T5 construct: fused to the N-terminus of the VH of Fab-0027 in the crystal; also called Short Form
T5 peptide: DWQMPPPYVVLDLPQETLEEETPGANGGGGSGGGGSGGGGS
The experiment can be described thus: crystal structure.

The target of the next experiment is T6, Long MIGIS-α form (human).
T6 construct: fused to the N-terminus of the VH of Fab-0027 in the crystal; also called long MIGIS-α peptide; Long Form
T6 peptide: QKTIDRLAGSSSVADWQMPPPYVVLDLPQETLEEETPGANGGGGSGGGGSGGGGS
The experiment can be described thus: crystal structure.

The target in experiment [11] is recombinant human CD3 epsilon (human, UniProt P07766 23-126, limits assumed). Put plainly: SPR.
Experiment [12] deals with T4, parental (IgA^-) Ramos cell line, which …. Put plainly: flow cytometry on parental Ramos cells (IgM only), MFI minus background.
In experiment [13] the target is T7, human membrane IgA (mIgA), endogenously expressed on primary B cells and DAKIKI cells (human, UniProt P01876 1-398).
T7 construct: whole, on cells; also called IgA^+ CD19^+ primary B cells
Put plainly: flow cytometry on primary human IgA+ memory B cells, mean of 3 donors.

Experiment [14] has as its target T7, human membrane IgA (mIgA), endogenously …. The experiment can be described thus: cell-based or functional assay.
Experiment [15] has the same target. The experiment can be described thus: cell-based or functional assay. This is another data set of the same source.
Experiment [16] concerns the target T8, membrane IgD on human IgD^+ (IgA^-) primary B cells (human, UniProt P01880 1-430).
T8 construct: whole, on cells; Negative control cell population without membrane IgA; also called CD19^+, IgD^+ B cell populations; IgD cells
T8 sequence (heavy, looked up): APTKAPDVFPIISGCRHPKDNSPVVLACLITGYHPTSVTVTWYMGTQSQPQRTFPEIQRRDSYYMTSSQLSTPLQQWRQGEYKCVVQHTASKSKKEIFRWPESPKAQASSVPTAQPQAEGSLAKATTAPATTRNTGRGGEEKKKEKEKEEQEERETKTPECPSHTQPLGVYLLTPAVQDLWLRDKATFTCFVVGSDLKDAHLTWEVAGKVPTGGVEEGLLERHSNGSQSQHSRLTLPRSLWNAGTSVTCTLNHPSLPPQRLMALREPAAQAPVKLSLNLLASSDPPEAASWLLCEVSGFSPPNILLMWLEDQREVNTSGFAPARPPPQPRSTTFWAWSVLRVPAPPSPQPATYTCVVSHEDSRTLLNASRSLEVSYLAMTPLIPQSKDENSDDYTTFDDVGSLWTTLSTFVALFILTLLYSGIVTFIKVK
Put plainly: flow cytometry on primary human B cells, gate IgD+ CD19+, MFI minus background.

Experiment [17] has as its target T3, human membrane IgA overexpressed on …. Put plainly: flow cytometry on human IgA+ Ramos cells, mean of 3 experiments.
Experiment [18] addresses cynomolgus monkey membrane IgA (cynomolgus monkey). Put plainly: cell-based or functional assay.
The target in experiment [19] is T7, human membrane IgA (mIgA), endogenously …. The experiment can be described thus: cell-based or functional assay. This is another data set of the same source.

T3 sequence (heavy, as listed by the source): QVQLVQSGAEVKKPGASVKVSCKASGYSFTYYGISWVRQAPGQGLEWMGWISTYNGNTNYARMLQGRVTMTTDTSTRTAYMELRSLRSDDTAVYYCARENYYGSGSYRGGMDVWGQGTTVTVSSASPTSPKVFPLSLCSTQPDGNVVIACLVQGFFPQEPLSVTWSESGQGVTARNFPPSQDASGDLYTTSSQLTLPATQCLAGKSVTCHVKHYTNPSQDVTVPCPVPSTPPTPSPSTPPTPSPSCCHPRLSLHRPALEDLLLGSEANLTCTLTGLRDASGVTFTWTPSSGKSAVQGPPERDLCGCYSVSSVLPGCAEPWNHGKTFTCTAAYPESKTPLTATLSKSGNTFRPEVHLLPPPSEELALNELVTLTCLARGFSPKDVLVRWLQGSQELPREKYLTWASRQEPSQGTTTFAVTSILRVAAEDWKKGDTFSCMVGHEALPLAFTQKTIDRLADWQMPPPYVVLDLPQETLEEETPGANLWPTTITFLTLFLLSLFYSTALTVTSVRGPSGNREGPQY
T4 sequence (P01871 whole entry): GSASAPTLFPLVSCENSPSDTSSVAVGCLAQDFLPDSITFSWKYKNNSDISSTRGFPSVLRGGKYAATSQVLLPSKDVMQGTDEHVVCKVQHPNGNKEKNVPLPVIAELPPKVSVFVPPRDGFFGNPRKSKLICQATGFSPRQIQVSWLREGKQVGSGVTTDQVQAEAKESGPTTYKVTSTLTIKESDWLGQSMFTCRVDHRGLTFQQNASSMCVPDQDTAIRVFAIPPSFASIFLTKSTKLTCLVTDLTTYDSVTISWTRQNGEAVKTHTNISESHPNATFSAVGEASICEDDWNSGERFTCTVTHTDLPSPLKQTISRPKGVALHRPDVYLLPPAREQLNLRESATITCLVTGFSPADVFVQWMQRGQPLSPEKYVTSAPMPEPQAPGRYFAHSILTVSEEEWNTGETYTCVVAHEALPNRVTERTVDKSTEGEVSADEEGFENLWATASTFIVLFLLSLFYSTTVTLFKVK
T7 sequence (P01876 whole entry): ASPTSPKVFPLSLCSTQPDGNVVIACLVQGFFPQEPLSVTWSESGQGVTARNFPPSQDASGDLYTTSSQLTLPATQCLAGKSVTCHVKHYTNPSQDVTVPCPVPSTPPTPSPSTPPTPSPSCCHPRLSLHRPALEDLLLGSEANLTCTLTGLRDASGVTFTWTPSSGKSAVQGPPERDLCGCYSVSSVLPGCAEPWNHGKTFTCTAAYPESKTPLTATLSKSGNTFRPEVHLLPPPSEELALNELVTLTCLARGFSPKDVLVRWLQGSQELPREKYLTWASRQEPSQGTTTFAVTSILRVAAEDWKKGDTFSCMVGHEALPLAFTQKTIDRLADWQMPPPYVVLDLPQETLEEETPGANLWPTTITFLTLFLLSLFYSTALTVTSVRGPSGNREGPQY
Sequence of recombinant human CD3 epsilon (P07766 23-126 limits assumed): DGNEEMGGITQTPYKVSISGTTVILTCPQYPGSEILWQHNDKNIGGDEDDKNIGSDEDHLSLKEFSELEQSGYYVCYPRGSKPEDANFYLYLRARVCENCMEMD

B1: GBT-IgA-0071 (T18 in one armed format) (antibody)
heavy: not shown
chain: EPKSSDKTHTCPPCPAPEAAGAPSVFLFPPKPKDTLMISRTPEVTCVVVDVSHEDPEVKFNWYVDGVEVHNAKTKPREEQYNSTYRVVSVLTVLHQDWLNGKEYKCKVSNKALPAPIEKTISKAKGQPREPQVYTLPPCREEMTKNQVSLSCAVKGFYPSDIAVEWESNGQPENNYKTTPPVLDSDGSFFLVSKLTVDKSRWQQGNVFSCSVMHEALHNRYTQKSLSLSPGK
light: not shown
notes: One-armed antibody; also called T18 OAA
Take B1: in experiment [1], the “fold improved binding over GBT-IgA-0070 (H05 OAA)” value is about 5 fold. In [2], the “fold improved affinity over GBT-IgA-0070 (H05 OAA)” value was about 20 fold. Also, in experiment [3], the Kd was 11.9 nM, the koff came out at 0.0132 s⁻¹ and the kon was 1.1e+06 M⁻¹ s⁻¹. In [4], this molecule registered an equilibrium dissociation constant (Kd) of 10.7 nM, a koff of 0.0316 s⁻¹ and a kon of 2.96e+06 M⁻¹ s⁻¹. For the same molecule, the “Fold Diff EC50 (OAA format in IgA Ramos by FLOW)” value in [5] amounted to 1 fold.

B2: GBT-IgA-0033 (H05) (antibody, V domains shown)
VH: QVQLVESGGGVVQPGRSLRLSCAASGFTFSSYGMHWVRQAPGKGLEWVAVISYDGSNKYYADSVKGRFTISRDNSKNTLYLQMNSLRAEDTAVYYCAKLYGGNPEDAIDYWGRGTLVTVSS
VL: not shown
notes: Parental clone from naive library; huIgG1; also called HOS
Regarding B2, the EC50 in experiment [6] was found to be 91.4 nM. In experiment [7], the binding result is “no binding”. Moreover, the Top in [8] amounted to 8440 gMFI.

B3: GBT-IgA-0032 (T25) (antibody, V domains shown)
VH: QVQLVESGGGVVQPGRSLRLSCAASGFTFSSYGMHWVRQAPGKGLEWVAVISYDGSNKYYADSVKGRFTISRDNSKNTLYLQMNSLRAEDTAVYYCAKLYGGNPKDTIYHWGRGTLVTVSS
VL: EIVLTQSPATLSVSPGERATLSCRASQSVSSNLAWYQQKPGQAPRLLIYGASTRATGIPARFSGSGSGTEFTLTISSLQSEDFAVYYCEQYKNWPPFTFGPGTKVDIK
For B3, in [9], the EC50 amounted to 2.9 nM and the “fold MFI compared to H05” value was about 4 fold. Moreover, the binding result in [7] was “no binding”. Also, the Top in experiment [8] was 33700 gMFI. For the same molecule, in [10], a half-maximal effect (EC50) was put at 2.99 nM.

B4: Fab of GBT-IgA-0027 (Fab-0027) (Fab, V domains shown)
VH: QVQLVESGGGVVQPGRSLRLSCAASGFTFSSYGMHWVRQAPGKGLEWVAVISYDGSNKYYADSVKGRFTISRDNSKNTLYLQMNSLRAEDTAVYYCAKLYGGNPKDTIYHWGRGTLVTVSS
VL: not shown
notes: Fab; constant parts not specified; antigen and Fab are written here as two molecules; also called VH-Fab-0027; T18 Fab
As for B4, the binding result with Short MIGIS-α form and with Long MIGIS-α form was “binds” each time.

B5: BMD-IgA-1156 (anti-CD3 binding arm h2B5v6) (antibody, V domains shown)
VH: EVQLVESGGGLVQPGGSLRLSCAASGFTFSDYYMTWVRQAPGKGLEWVAFIRNQARGYTSDHNPSVKGRFTISRDNAKNSLYLQMNSLRAEDTAVYYCARDRPSYYVLDYWGQGTTVTVSS
VL: DIQMTQSPSSLSASVGDRVTITCTSSQSLFNVRSQKNYLAWYQQKPGKAPKLLIYWASTRESGVPSRFSGSGSGTDFTLTISSLQPEDFATYYCKQSYDLFTFGGGTKVEIKR
notes: Only the anti-CD3 chains are tied to this name
Regarding B5, in experiment [11], the Kd was 17 nM.

B6: GBT-IgA-1602, anti-MIGIS-α/CD3 bispecific antibody (bispecific antibody)
heavy 1: not shown
light 1: not shown
heavy 2: EVQLVESGGGLVQPGGSLRLSCAASGFTFSDYYMTWVRQAPGKGLEWVAFIRNQARGYTSDHNPSVKGRFTISRDNAKNSLYLQMNSLRAEDTAVYYCARDRPSYYVLDYWGQGTTVTVSSASTKGPSVFPLAPSSKSTSGGTAALGCLVKDYFPEPVTVSWNSGALTSGVHTFPAVLQSSGLYSLSSVVTVPSSSLGTQTYICNVNHKPSNTKVDKKVEPKSCEKTHTCPPCPAPEAAGAPSVFLFPPKPKDTLMISRTPEVTCVVVDVSHEDPEVKFNWYVDGVEVHNAKTKPREEQYNSTYRVVSVLTVLHQDWLNGKEYKCKVSNKALPAPIEKTISKAKGQPREPQVYTLPPSREEMTKNQVSLTCEVKGFYPSDIAVEWESNGQPENNYKTTPPVLDSDGSFFLYSKLTVDKSRWQQGNVFSCSVMHEALHNHYTQKSLSLSPGK
light 2: DIQMTQSPSSLSASVGDRVTITCTSSQSLFNVRSQKNYLAWYQQKPGKAPKLLIYWASTRESGVPSRFSGSGSGTDFTLTISSLQPEDFATYYCKQSYDLFTFGGGTKVEIKRTVAAPSVFIFPPSDEQLKSGTASVVCLLNNFYPREAKVQWKVDNALQSGNSQESVTEQDSKDSTYSLSSTLTLSKADYEKHKVYACEVTHQGLSSPVTKSFNRGEC
With B6, the binding result in experiment [12] is “no binding (tested: about 300 nM)”. It took 49.8 nM to reach a half-maximal effect in experiment [13] (EC50). The “EC50 (nM), IgA^+ memory B cell kill” value in [14] was determined as 0.587 nM. Also, in [15], the “EC50 (nM), IgA producing B cell kill” value stood at 1.5 nM. Moreover, the binding result in [16] was “no binding (tested: about 500 nM)”. This molecule showed an EC50 in [17] of 40.5 nM. Further, in [18], the “Primary cell killing, potency EC50 (nM), cyno memory membrane IgA+” value was determined as 0.19 nM and the “Primary cell killing, potency EC50 (nM), cyno soluble plasma cells (IgA secreting)” value was 1.34 nM. Further, in experiment [19], the “Primary cell killing, potency EC50 (nM), human memory B cells (membrane IgA+)” value came to 0.73 nM and the “Primary cell killing, potency EC50 (nM), human plasma cells (IgA secreting)” value was found to be 1.67 nM.

As a reminder, the Kd is the equilibrium constant for the complex coming apart. For orientation: koff means the rate constant with which the complex falls apart. As usually defined, the kon is the second-order rate constant of association. A word on the EC50: it is the concentration at which the effect is half-maximal.
